These results are taken from article PMC4667172.

The experiment deals with T1, LONM (human mitochondrial matrix AAA+ protease) (human (endogenous in HeLa)) (UniProt P36776).
T1 sequence: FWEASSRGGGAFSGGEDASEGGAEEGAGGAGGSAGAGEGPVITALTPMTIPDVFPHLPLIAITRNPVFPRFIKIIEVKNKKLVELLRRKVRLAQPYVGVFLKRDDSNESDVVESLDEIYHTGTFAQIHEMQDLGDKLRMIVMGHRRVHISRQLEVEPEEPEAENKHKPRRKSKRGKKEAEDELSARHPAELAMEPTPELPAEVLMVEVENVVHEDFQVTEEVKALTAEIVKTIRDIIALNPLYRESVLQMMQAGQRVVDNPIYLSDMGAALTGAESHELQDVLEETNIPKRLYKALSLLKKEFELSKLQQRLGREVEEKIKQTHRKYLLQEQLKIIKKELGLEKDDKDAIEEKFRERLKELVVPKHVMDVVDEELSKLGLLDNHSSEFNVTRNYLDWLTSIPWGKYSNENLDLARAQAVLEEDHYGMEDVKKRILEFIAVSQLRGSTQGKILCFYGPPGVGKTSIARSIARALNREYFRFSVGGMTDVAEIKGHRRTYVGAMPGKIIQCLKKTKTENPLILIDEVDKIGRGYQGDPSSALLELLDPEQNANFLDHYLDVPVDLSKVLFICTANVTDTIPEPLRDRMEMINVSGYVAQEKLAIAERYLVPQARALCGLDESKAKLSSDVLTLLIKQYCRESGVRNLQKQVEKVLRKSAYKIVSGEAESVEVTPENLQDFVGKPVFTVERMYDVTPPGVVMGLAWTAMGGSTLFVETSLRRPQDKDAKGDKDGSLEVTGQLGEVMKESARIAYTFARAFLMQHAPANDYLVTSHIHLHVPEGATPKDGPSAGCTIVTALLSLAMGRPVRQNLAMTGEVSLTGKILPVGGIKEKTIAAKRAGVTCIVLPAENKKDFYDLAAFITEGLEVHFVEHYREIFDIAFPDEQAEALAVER

B1: Pig heart mitochondrial malate dehydrogenase (MDH) (natural protein)
chain: AKVAVLGASGGIGQPLSLLLKNSPLVSRLTLYDIAHTPGVAADLSHIETRATVKGYLGPEQLPDCLKGCDVVVIPAGVPRKPGMTRDDLFNTNATIVATLTAACAQHCPDAMICIISNPVNSTIPITAEVFKKHGVYNPNKIFGVTTLDIVRANAFVAELKGLDPARVSVPVIGGHAGKTIIPLISQCTPKVDFPQDQLSTLTGRIQEAGTEVVKAKAGAGSATLSMAYAGARFVFSLVDAMNGKEGVVECSFVKSQETDCPYFSTPLLLGKKGIEKNLGIGKISPFEEKMIAEAIPELKASIKKGEEFVKNMK
As for B1, the half-life of guanidine-unfolded MDH (MDHU) in in vitro degradation by purified recombinant LONM with ATP was 4 min.

B2: mature recombinant OTC (rat ornithine transcarbamylase) (natural protein)
chain: SQVQLKGRDLLTLKNFTGEEIQYMLWLSADLKFRIKQKGEYLPLLQGKSLGMIFEKRSTRTRLSTETGFALLGGHPSFLTTQDIHLGVNESLTDTARVLSSMTDAVLARVYKQSDLDILAKEATIPIVNGLSDLYHPIQILADYLTLQEHYGSLKGLTLSWIGDGNNILHSIMMSAAKFGMHLQAATPKGYEPDPNIVKLAEQYAKENGTRLSMTNDPLEAARGGNVLITDTWISMGQEDEKKKRLQAFQGYQVTMKTAKVAASDWTFLHCLPRKPEEVDDEVFYSPRSLVFPEAENRKWTIMAVMVSLLTDYSPVLQKPKF
For the molecule B2, the half-life of guanidine-unfolded OTC (OTCU) in in vitro degradation by purified recombinant LONM with ATP came out at 15 min.
